Measured values reported in article PMC4222845 (PLoS Pathogens, 2014).

Molecular target: the molecule itself
Assay: SEC; Superdex 200 10/300 GL, 10 mM Tris-HCl pH 7.5, 150 mM NaCl, 0.5 mL/min, 4°C; equivalent molar concentrations, incubated 15 minutes; molecular weight from BioRad gel-filtration standards

B1: IpgC (natural protein)
chain: MSLNITENESISTAVIDAINSGATLKDINAIPDDMMDDIYSYAYDFYNKGRIEEAEVFFRFLCIYDFYNVDYIMGLAAIYQIKEQFQQAADLYAVAFALGKNDYTPVFHTGQCQLRLKAPLKAKECFELVIQHSNDEKLKIKAQSYLDAIQDIKE
notes: also called translocator-specific chaperone from Shigella
B1 was tested, and the “stoichiometry N” value was 2.
